Target: recombinant wild type myostatin
Assay: cell-based or functional assay

p-FoxO1 expression (Western blot, normalised to total FoxO1) in C2C12 myotubes; myostatin 6 ug/mL with 300 at 30, 60, 90 or 120 ug/mL for 24 hours; concentration of 300 giving maximal rescue: 90 µg/mL
Substance: myostatin antagonist 300 (amino acids 267-300 of bovine myostatin with N-terminal and C-terminal tags) (peptide)
